Experimental data as given in the supplement of paper PMC12764529.
± gives the half width of the 95% confidence interval.

Key:
[1] = folding stability dG unfold from trypsin proteolysis; higher = more stable
Description: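 Folding stability of de novo designed mini-proteins (<80 aa, no Cys; designed by TrROS, TrMRF, ProteinMPNN and the joint model) was measured by cDNA display proteolysis with trypsin and chymotrypsin. Each protease was used at 11 concentrations in a threefold dilution series plus a no-protease condition. K50 was inferred by Bayesian fitting of sequencing counts, and dG unfold was derived against a sequence-predicted unfolded-state K50 (Tsuboyama et al. method). Sequences shown include variable-length N-terminal GS-type padding (SAGGSAGG...) inside a display construct carrying a PA tag. Rows were kept only if the AF2 dimer inter-PAE was >15, to exclude likely homo-oligomers.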

[2] = folding stability dG unfold (combined trypsin and chymotrypsin); higher = more stable
Method in brief: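 K50 was inferred by Bayesian fitting of sequencing counts obtained after protease digestion of designed mini-proteins. Unfolding free energy was derived by comparison with a sequence-predicted unfolded-state K50 and a shared folded-state K50, for each protease or both combined. The mini-proteins were under 80 residues, had no cysteine, were carried in a PA-tagged cDNA display construct, and were kept only if AlphaFold2 dimer inter-PAE exceeded 15.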

Sequence	folding stability dG unfold [1] [kcal/mol]	folding stability dG unfold [2] [kcal/mol]
SAGGSAGGSAPLEELLDVIRSVPANTRAEFPIIVETETGYVPYIARVENPEPGGALIEIEKASAGGSAGGSA [r18_493_TrMRF]	-0.258 ± 0.11	< -1
SAGGSAGGSAGGMKTYSVEELRARLEEEGKEPTLEELASLPGAKVELNKETKEATIVLKPSAGGSAGGSAGG [r7_180_TrROS_Hall]	0.044 ± 0.16	< -1
SAGMYTVLETRTVNGRTVTLIDVPERPLTVTVTVDRDPSGRRTVTVNVEGEVKEILEKANPDIDELTLESAG [r5_933_JUSTAS]	0.456 ± 0.096	-0.15 ± 0.2
SAGGSAGGSATVDEVIKEAREEAREEHPNYPPGQTHTIKIRDPDNGEKVKIRFTNDGKIEISAGGSAGGSAG [r3_441_TrROS]	-0.0324 ± 0.057	< -1
SAGGSAGGYVEVTIMIPPDDLDEIKEIAEPFGFTSVETERVPDNPMVVVKIEVKIPKEDDKDNKSAGGSAGG [r6_273_TrROS]	0.427 ± 0.054	-0.139 ± 0.2
SAGGSENPNDPRPVVPVGVAVVDIEIHGHPDMTEEERLAAVEEAVEALEGLEVEHPDGHPTILLAGSAGGSA [r2_149_TrMRF]	-0.161 ± 0.071	< -1
SAGGSAPGKKTIKIEIIFPFPEEQAKEFADYIAKGIADETGHDPENIDIKVEVHVFDPANNEPRPFSAGGSA [r15_918_TrROS]	-0.236 ± 0.2	-0.511 ± 0.25
SDVNIKPEKVDPNGIFTVEIPVDNNNVDKLREIINEIFPNFEPTEVKPNPESGYHEIIMRVPDGKAFEFSSA [r9_1164_TrROS]	-0.141 ± 0.04	-0.55 ± 0.14
SAGGSAGGSASLPEKLAQEAKEKILKENPDVEVTEIVVTKLPPEKYTVTIKTPDGKTETIPLSAGGSAGGSA [r18_423_JUSTAS]	-0.00229 ± 0.023	-0.308 ± 0.1
SAGGSAGGSAGMYTVSPVGSGGGGSMIRIENPETGEVIELDFDSEEEAAAAAEELKEKLASAGGSAGGSAGG [r11_848_JUSTAS]	0.343 ± 0.043	-0.22 ± 0.17
SAGGSAGGSAGGHIVIPNKRWYIQFPNGKPIGEHRFDTAEDIAKELPPNMRIVPPGDPISAGGSAGGSAGGS [r10_310_TrROS]	0.281 ± 0.32	< -1
SAGGSAGGSAMKPERIELPGNEVAVIEKVPEAGVYIVTFKKPEGDEPLGEKIFKPDEIDLKLESAGGSAGGS [r20_190_JUSTAS]	-1.17 ± 0.24	< -1
SAGGSASMITSTLTDPSTGTSSTLPTEVLQKLLDENPPDSNLVLPTGPKPVTVKVEPEKGLATFTGSAGGSA [r15_350_JUSTAS]	0.153 ± 0.039	-0.989 ± 0.29
SAGGSAGGSAGGGPSVAPFEVTELLSVSYVPGPRRFVAVVRLPDPERLVVVPVEDLPPGQSAGGSAGGSAGG [r7_304_TrMRF]	-0.941 ± 0.41	< -1
SAGGSAGGSPDNITFKVPDGPVRIENGNNEQEFPPGKTQTIPPKNPNNMRIEAFPPNIIKITPSAGGSAGGS [r20_150_TrROS]	-0.793 ± 0.45	< -1
SAGGSAGGSSPDIEVEITVDAPPGARILGTDGKPVEIPASNPKVKIIVIEGDNSFFIKTEPVGSAGGSAGGS [r12_338_TrMRF]	-0.362 ± 0.22	< -1
SAGWRRIPPGRPIRIRLKGNGEEITIPIPEGAEVEPDPDNNNVMIWFREDGKEWSMNFKNGRIDDIEPVSAG [r5_22_TrROS]	-0.194 ± 0.32	< -1
SAGGSAGGSAGGSPPTAKELVKELREKFPPGYPITIKHPDKTIRIMMNPGPGKFQVEIYSAGGSAGGSAGGS [r4_150_TrROS]	-0.236 ± 0.37	< -1
SAGGSAGGSAGGGMTTVTIEVPPELSEEEVRRAAAELVAAGRPVPVTVERLPEDRVVVVTSAGGSAGGSAGG [r7_283_JUSTAS]	0.68 ± 0.021	-0.0348 ± 0.082
SAGGSAGGEPITPEEAREIADYFMEEHGAKEVEVKVDPNGGIIKIDVTHPNDGRKYEREIQIEKSAGGSAGG [r6_550_TrROS]	0.142 ± 0.13	< -1
SAGGSAGGSAGGTKEFPIWFGGEPVKVTVEPDPDGQPKIEIEEPGGAEITIPPGGPLQFSAGGSAGGSAGGS [r10_989_TrROS]	0.934 ± 0.061	0.343 ± 0.21
SAGGSAGGSMVTTSIDPSGTAKITVTDGGGVPVSTATIPVDPNAILTYDPNNSSISTFSPVSSSAGGSAGGS [r12_1002_JUSTAS]	0.519 ± 0.032	-0.442 ± 0.24
SAGGSAGGEKKYEVVEKKELTLEDIEKADEILVVGKDGKVFKSRDDVKAAAEKGEKITVYVVKKSAGGSAGG [r6_827_TrROS_Hall]	0.0471 ± 0.46	< -1
SAGGSAGGMTAEEVAEWIADEFMENHPNIEIKPVATEDGEVKIDIRHPNSGMTHTFKIPPGQPLSAGGSAGG [r6_446_TrROS]	-0.796 ± 0.19	< -1

Sequence	folding stability dG unfold [1] [kcal/mol]	folding stability dG unfold [2] [kcal/mol]
SAGGSMTLTFRKPDTDVTSEKVTKPPGGPELVDLRITPPDGSGEKRTLTPEELAKEFGLSLEEILESAGGSA [r2_262_JUSTAS]	-0.183 ± 0.31	< -1
SAGGSAGGSDILKNLPPGHKRVEIMFIPNMPMEKMKRMAKEIAPILRKRGVDVEIKVIPPDEMSAGGSAGGS [r12_456_TrROS]	0.859 ± 0.17	0.118 ± 0.36
SAGGSAGGSAGVELPPSLSAEVTPVPGKPGLSRVTITLPDGVVRTIDLERKGDKWIVNPRSAGGSAGGSAGG [r11_177_JUSTAS]	-0.0818 ± 0.14	< -1
SAGGMVEIDPNPRVITVTDPSSSKVTKLNLPFPPDEVEKVTVLPDGTIAVYVPATGETIEVPLSELGSAGGS [r16_410_JUSTAS]	-0.136 ± 0.22	-0.774 ± 0.33
SAGGSAGGSAGGSSVSSLSIKNPPSDPKGILSSVSPEGKVVLTTVNPDGSLTTTVVDVNSAGGSAGGSAGGS [r4_177_JUSTAS]	0.787 ± 0.065	0.414 ± 0.2
SAGGSAGGSAGGEVEVPKDASLVVTYPNGERKEVPVEDKVPVKGLPVYLLGPDGTLREIDSAGGSAGGSAGG [r7_54_TrMRF]	0.294 ± 0.18	< -1
SAGGSAGGSAGTKEYEVKVGDKIVRISETPDSRVIDYPETDFKKEFSSDFPGKPIAEYLASAGGSAGGSAGG [r11_648_TrMRF]	-0.781 ± 0.49	< -1
SAGGPSAENLVEGDKVLLLIPLGDGPERRLELPLPDGRPVVVEVEPDRPGLITVTIPETGKPIVLPLSAGGS [r16_198_TrMRF]	-0.489 ± 0.086	< -1
SAGGSAGGSAGGKRITIMFNTPEQIEELAENLGFDDIEVEPFPNEDGRPYVQVTIRLPPSAGGSAGGSAGGS [r10_494_TrROS]	-0.703 ± 0.15	< -1
SAGGSAGGSAGMLLLTFPERGISYEIKLGDKEEEREADPEEVEKLIAELPNYEVKEVELLSAGGSAGGSAGG [r11_57_JUSTAS]	0.559 ± 0.1	0.288 ± 0.26
SAGGGAEEEAKKIAEELEKIGGVKKVEVEVKPKPDDSVEVKVKVEFEPPKPPKPPVVELPENGELVFKSAGG [r13_957_TrMRF]	-0.0749 ± 0.21	< -1
SAGGSAGGAVPSYIKDIETIPETSALIVNAESEEIVKEFLEKLGLKIESKEVDEDKIILPAKIESAGGSAGG [r6_381_JUSTAS]	0.774 ± 0.099	0.0269 ± 0.35
SAGGSAGGSAGMKPGQVVIYKIKIPLPDDGEPLFEIPIMYPVGMPEEQAKDFAKEFADKFSAGGSAGGSAGG [r11_516_TrROS]	-0.41 ± 0.12	-0.586 ± 0.24
SAGGSAGGSAPPPLPPDAVVTIPNPGSLEEVKKLAEKLREEHGIKKIKITVEPNSVTLTVASAGGSAGGSAG [r3_73_JUSTAS]	0.476 ± 0.15	< -1
SAGGSAGGSAGGPKFKFEDVMVQRNPEPERAYVPITYEDPGKERPIMIPIPPNQTLDEISAGGSAGGSAGGS [r10_304_TrROS]	0.0428 ± 0.068	< -1
SAGGSAGGSAGEPIRVRIENPPGGQRKITIPTDDLQEKGITPKDIAKKLAREFGWPIEVWSAGGSAGGSAGG [r11_829_TrROS]	0.257 ± 0.3	< -1
SAGGSAGGSAGGITPEEIEKIREAPLPNGAPIKDVFVEGDYAVVLFETEPDLYLIVIPNKSAGGSAGGSAGG [r7_995_TrMRF]	-0.121 ± 0.12	-0.907 ± 0.57
SALPPEEVKKLARDIMREFNPDNGFKPEDVDVDPNEGTIMVDWRMPDPNGKRHRMPFQIQVDKDGKIKISAG [r14_183_TrROS]	-0.306 ± 0.36	< -1
SAGGSAGGMSISTEQEGGKITVTDSSPGTPIAELPPDVEKEVETPVIPPPPPLYRLFLPGTVLVSAGGSAGG [r6_40_JUSTAS]	-0.94 ± 0.48	< -1
SAGVEELAEKIAKELEGEDFEVEAEVDPEKGTITVVVKTPDYVVVKEIYIDPKNDKPVMDVKVFKPNESAGG [r19_2_TrMRF]	0.241 ± 0.059	-0.954 ± 0.7
SAGKFKITSIKPLYVTTPADAPPVKKPYLVIELDAEDPEKARELAEKLTGAPVLVVEDPETGTATIVIDSAG [r5_907_TrMRF]	0.121 ± 0.082	-0.357 ± 0.17
SAGGSMTLTEVSYEGDKVVTTTTTFTPGAPALTSSTTTTPIPPVPLGPRPVIFFEPVSEMRPLALVSAGGSA [r2_332_JUSTAS]	0.628 ± 0.051	0.034 ± 0.17
SAGGSAGGSVEIKSITTVTDPNSSANPTTITVKRDPAKGVLGEEVKAIAKALEEAGYPTTFGTSAGGSAGGS [r12_172_JUSTAS]	-0.769 ± 0.17	< -1
